Data: patent US20240117018A1

Tests used:
Test in all cases: cell-based or functional assay
[1] = target: HIV-1 Env of pseudovirus Ce1172_H1 (HIV-1)
[2] = target: HIV-1 Env of pseudovirus CNE58 (HIV-1)
[3] = target: HIV-1 Env of pseudovirus 6244_13_B5_4576 (HIV-1)
[4] = target: HIV-1 Env of pseudovirus 1394C9G1(Rev-) (HIV-1)
[5] = target: HIV-1 Env of pseudovirus CNE19 (HIV-1)
[6] = target: HIV-1 Env of pseudovirus 1054_07_TC4_1499 (HIV-1)
[7] = target: HIV-1 Env of pseudovirus Ce703010054_2A2 (HIV-1)
[8] = target: HIV-1 Env of pseudovirus Q842.d12 (HIV-1)
[9] = target: HIV-1 Env of pseudovirus 1006_11_C3_1601 (HIV-1)
[10] = target: HIV-1 Env of pseudovirus CNE20 (HIV-1)
[11] = target: HIV-1 Env of pseudovirus RHPA4259.7 (HIV-1)
[12] = target: HIV-1 Env of pseudovirus HIV-001428-2.42 (HIV-1)
[13] = target: HIV-1 Env of pseudovirus Q23.17 (HIV-1)
[14] = target: HIV-1 Env of pseudovirus ZM249M.PL1 (HIV-1)
[15] = target: HIV-1 Env of pseudovirus 1056_10_TA11_1826 (HIV-1)
[16] = target: HIV-1 Env of pseudovirus HIV-16845-2.22 (HIV-1)
[17] = target: HIV-1 Env of pseudovirus HIV-16055-2.3 (HIV-1)
[18] = target: HIV-1 Env of pseudovirus TRJO4551.58 (HIV-1)
[19] = target: HIV-1 Env of pseudovirus Ce0682_E4 (HIV-1)
[20] = target: HIV-1 Env of pseudovirus 6240_08_TA5_4622 (HIV-1)
[21] = target: HIV-1 Env of pseudovirus ZM197M.PB7 (HIV-1)
[22] = target: HIV-1 Env of pseudovirus 6535.3 (HIV-1)
[23] = target: HIV-1 Env of pseudovirus C2101.c01 (HIV-1)
[24] = target: HIV-1 Env of pseudovirus 62357_14_D3_4589 (HIV-1)
[25] = target: HIV-1 Env of pseudovirus CAP45.2.00.G3 (HIV-1)
[26] = target: HIV-1 Env of pseudovirus SC05_8C11_2344 (HIV-1)
[27] = target: HIV-1 Env of pseudovirus 246F C1G (HIV-1)
[28] = target: HIV-1 Env of pseudovirus 3415.v1.c1 (HIV-1)
[29] = target: HIV-1 Env of pseudovirus BF1266.431a (HIV-1)
[30] = target: HIV-1 Env of pseudovirus SC422661.8 (HIV-1)
[31] = target: HIV-1 Env of pseudovirus CAAN5342.A2 (HIV-1)
[32] = target: HIV-1 Env of pseudovirus Q461.e2 (HIV-1)
[33] = target: HIV-1 Env of pseudovirus 7030102001E5(Rev-) (HIV-1)
[34] = target: HIV-1 Env of pseudovirus CNE21 (HIV-1)
[35] = target: HIV-1 Env of pseudovirus Du422.1 (HIV-1)
[36] = target: HIV-1 Env of pseudovirus Ce0393_C3 (HIV-1)

Substance: N49P7 (antibody)
- IC50 [1]: 8.5 µg/mL
- IC80 [1]: 37.5 µg/mL
- MPI [1]: 92
- IC50 [2]: 0.029 µg/mL
- IC80 [2]: 0.067 µg/mL
- MPI [2]: 100
- IC50 [3]: 0.111 µg/mL
- IC80 [3]: 0.386 µg/mL
- MPI [3]: 100
- IC50 [4]: 3.84 µg/mL
- IC80 [4]: 21.1 µg/mL
- MPI [4]: 94
- IC50 [5]: 0.009 µg/mL
- IC80 [5]: 0.041 µg/mL
- MPI [5]: 100
- IC50 [6]: 0.494 µg/mL
- IC80 [6]: 2.31 µg/mL
- MPI [6]: 100
- IC50 [7]: 0.132 µg/mL
- IC80 [7]: 0.466 µg/mL
- MPI [7]: 100
- IC50 [8]: 0.021 µg/mL
- IC80 [8]: 0.06 µg/mL
- MPI [8]: 100
- IC50 [9]: 0.044 µg/mL
- IC80 [9]: 0.158 µg/mL
- MPI [9]: 100
- IC50 [10]: 0.028 µg/mL
- IC80 [10]: 0.1 µg/mL
- MPI [10]: 100
- IC50 [11]: 0.083 µg/mL
- IC80 [11]: 0.246 µg/mL
- MPI [11]: 100
- IC50 [12]: 0.006 µg/mL
- IC80 [12]: 0.02 µg/mL
- MPI [12]: 100
- IC50 [13]: 0.052 µg/mL
- IC80 [13]: 0.21 µg/mL
- MPI [13]: 100
- IC50 [14]: 0.039 µg/mL
- IC80 [14]: 0.134 µg/mL
- MPI [14]: 100
- IC50 [15]: 0.141 µg/mL
- IC80 [15]: 0.468 µg/mL
- MPI [15]: 100
- IC50 [16]: 0.95 µg/mL
- IC80 [16]: 3.94 µg/mL
- MPI [16]: 100
- IC50 [17]: 0.057 µg/mL
- IC80 [17]: 0.28 µg/mL
- MPI [17]: 100
- IC50 [18]: 0.104 µg/mL
- IC80 [18]: 0.351 µg/mL
- MPI [18]: 100
- IC50 [19]: 0.041 µg/mL
- IC80 [19]: 0.131 µg/mL
- MPI [19]: 100
- IC50 [20]: 0.457 µg/mL
- IC80 [20]: 1.73 µg/mL
- MPI [20]: 100
- IC50 [21]: 0.109 µg/mL
- IC80 [21]: 0.347 µg/mL
- MPI [21]: 100
- IC50 [22]: 0.186 µg/mL
- IC80 [22]: 0.598 µg/mL
- MPI [22]: 100
- IC50 [23]: 0.06 µg/mL
- IC80 [23]: 0.34 µg/mL
- MPI [23]: 100
- IC50 [24]: 0.025 µg/mL
- IC80 [24]: 0.102 µg/mL
- MPI [24]: 100
- IC50 [25]: 0.06 µg/mL
- IC80 [25]: 0.29 µg/mL
- MPI [25]: 100
- IC50 [26]: 0.164 µg/mL
- IC80 [26]: 0.403 µg/mL
- MPI [26]: 100
- IC50 [27]: 0.094 µg/mL
- IC80 [27]: 0.255 µg/mL
- MPI [27]: 100
- IC50 [28]: 0.16 µg/mL
- IC80 [28]: 0.55 µg/mL
- MPI [28]: 100
- IC50 [29]: 0.057 µg/mL
- IC80 [29]: 0.199 µg/mL
- MPI [29]: 100
- IC50 [30]: 0.114 µg/mL
- IC80 [30]: 0.32 µg/mL
- MPI [30]: 100
- IC50 [31]: 0.409 µg/mL
- IC80 [31]: 1.21 µg/mL
- MPI [31]: 100
- IC50 [32]: 0.261 µg/mL
- IC80 [32]: 0.922 µg/mL
- MPI [32]: 100
- IC50 [33]: 0.184 µg/mL
- IC80 [33]: 0.832 µg/mL
- MPI [33]: 100
- IC50 [34]: 0.756 µg/mL
- IC80 [34]: 6.02 µg/mL
- MPI [34]: 97
- IC50 [35]: 4.5 µg/mL
- IC80 [35]: 19.5 µg/mL
- MPI [35]: 93
- IC50 [36]: 0.195 µg/mL
- IC80 [36]: 0.802 µg/mL
- MPI [36]: 100
